In US20090155239A1, “Novel Protease, Microorganism Producing the Same, and Application Thereof” (SODX CO., LTD., priority 2005, published 2009):
Like-named read-outs stand apart in the source and are kept apart here. Where a SMILES comes first, the peptide text is derived from it. [ ]: non-standard residue; d: D form. The star is where a group is joined. Sta = CC(C)C[C@H](N)[C@@H](O)CC(=O)O; Isovaleryl = CC(C)CC(=O)*

How the values were obtained:
[1] = test system: protease of the present invention; type: biochemical, Fusarium sp. strain BLB; conditions: for Relative Activity (%): pH 5
mice = experiment: Acute toxicity test on mice
[2] = substrate Suc-Ala-Ala-Pro-Phe-pNA; H-D-Ile-Pro-Arg-pNA taken as 100
Hammarsten casein = experiment: Casein method; type: biochemical; conditions: final purified product of Example 2
Protocol: A 0.5 ml quantity of sample (protease solution) is added to 1.5 ml of Hammarsten casein solution, prepared using 100 mM boric acid buffer (pH 10) so as to have a final concentration of 1 wt. %, and a reaction is carried out at 37° C. for 10 minutes. The reaction is terminated by adding 2 ml of 0.44 M trichloroacetic acid solution. After allowing the reaction mixture to stand for 20 minutes, the precipitate is filtered off. Five milliliters of 0.44 M aqueous sodium carbonate solution and 1 ml of phenol reagent (containing, per 100 ml, 9.1 g of sodium tungstate dihydrate, 2.3 g of sodium molybdate dihydrate, 4.5 ml of phosphoric acid, 9.1 ml of hydrochloric acid, and 13.6 g of lithium sulfate) are added in that order. After allowing the resulting mixture to stand for 20 minutes, the absorbance at an absorption wavelength of 660 nm is measured. In the above measurement, the amount of enzyme that liberates, per minute, an acid-soluble protein hydrolysate corresponding to 1 μg of tyrosine is defined as 1 unit.

[3] = substrate H-D-Val-Leu-Lys-pNA; H-D-Ile-Pro-Arg-pNA taken as 100
[4] = substrate Suc-Ala-Ala-Pro-Leu-pNA; H-D-Ile-Pro-Arg-pNA taken as 100
[5] = substrate Gle-Phe-pNA; H-D-Ile-Pro-Arg-pNA taken as 100
[6] = Synthetic substrate method, substrate specificity; type: biochemical; conditions: substrate Bz-L-Arg-pNA
[7] = substrate H-D-Ile-Pro-Arg-pNA, taken as 100
fibrin = experiment: Fibrin plate method; type: biochemical, bovine

Molecule: c1ccc(-c2ccccn2)nc1 [2,2′-Bipyridyl]
- Relative Activity (%) [1]: 97%

Molecule: CC(C)C[C@H](NC(=O)[C@H]1O[C@@H]1C(=O)O)C(=O)NCCCCN=C(N)N [E-64, t-epoxysuccinyl-L-leucylamide(4-guanidino)butane]
- Relative Activity (%) [1]: 97%

Molecule: O=C(O)CN(CCN(CC(=O)O)CC(=O)O)CC(=O)O [EDTA, ethylenediaminetetraacetic acid]
- Relative Activity (%) [1]: 100%

Molecule: O=S(=O)(F)Cc1ccccc1 [PMSF, phenylmethylsulfonyl fluoride]
- inhibition of the protease (in words) [1]: inhibited
- Relative Activity (%) [1]: 59%

Molecule: CC(C)CC(=O)N[C@H](C(=O)N[C@H](C(=O)N[C@@H](CC(C)C)[C@@H](O)CC(=O)N[C@@H](C)C(=O)N[C@@H](CC(C)C)[C@@H](O)CC(=O)O)C(C)C)C(C)C [Pepstatin] (Isovaleryl-VV[Sta]A[Sta]-OH)
- Relative Activity (%) [1]: 100%

Molecule: c1cnc2c(c1)ccc1cccnc12 [Phenanthroline]
- Relative Activity (%) [1]: 100%

Molecule: NCCCCCC(=O)O [ε-ACA, ε-aminocaproic acid]
- Relative Activity (%) [1]: 100%

Molecule: Chimostatin
- Relative Activity (%) [1]: 100%

Molecule: Streptomyces pepsin inhibitor [SPI]
- Relative Activity (%) [1]: 100%

B1: protease of the present invention: novel trypsin-type serine protease from Fusarium sp. strain BLB, about 27000 on SDS-PAGE, amino acid sequence SEQ ID NO: 1 (protein, listed as Fusarium sp.)
chain: MVKFATIVALVAPLVAARPQDRPLIVGGTAASAGDFPFIVSISYQGGPWCGGTLLNANTVLTAAHCTSGRAASAFQVRAGSLNRNSGGVTSSVSSIRIHPSFSSSTLNNDVSILKLSTPIASSSTISYGRLAASGSDPAAGSSATVAGWGATAQGSPSSPVALRKVTIPIVSRATCRAQYGTSAITTNMFCAGLEEGGKDSCQGDSGGPIVDTSNTVIGIVSWGEGCAQPNFSGVYARVGTLRSYIDGQL
- safety in acute toxicity test (mice): demonstrated the safety
- Relative Activity (%) [2]: 0%
- protease activity by the casein method (Hammarsten casein): 634 U/mg
- Relative Activity (%) [3]: 21%
- Relative Activity (%) [4]: 0%
- Relative Activity (%) [5]: 0%
- degrading activity on synthetic substrate (in words) [6]: has degrading activity
- Relative Activity (%) ([6]; H-D-Ile-Pro-Arg-pNA taken as 100): 2.8%
- Relative Activity (%) [7]: 100%
- fibrinolytic activity (in words) (fibrin): strong fibrinolytic activity

B2: soybean trypsin inhibitor (protein)
chain: DFVLDNEGNPLENGGTYYILSDITAFGGIRAAPTGNERCPLTVVQSRNELDKGIGTIISSPYRIRFIAEGHPLSLKFDSFAVIMLCVGIPTEWSVVEDLPEGPAVKIGENKDAMDGWFRLERVSDDEFNNYKLVFCPQQAEDDKCGDIGISIDHDDGTRRLVVSKNKPLVVQFQKLDKESL
- inhibition of the protease (in words) [1]: not inhibited
- Relative Activity (%) [1]: 100%

B3: Streptomyces subtilisin inhibitor (protein)
chain: DAPSALYAPSALVLTVGKGVSATTAAPERAVTLTCAPGPSGTHPAAGSACADLAAVGGDLNALTRGEDVMCPMVYDPVLLTVDGVWQGKRVSYERVFSNECEMNAHGSSVFAF
- Relative Activity (%) [1]: 100%
